Measured values as given in article PMC4939597, “Mechanism for insulin-like peptide 5 distinguishing the homologous relaxin family peptide receptor 3 and 4” (Scientific Reports, 2016).
No end group written: not given here.

Tests used:
human RXFP3 [1] = molecular target: T1, human RXFP3 (Homo sapiens, UniProt Q9NSD7); assay: Receptor activation assay, CRE-controlled NanoLuc reporter; type: cell-based; settings: lower than relaxin-3
T1 construct: expressed in transfected cells; host or cells: HEK293T
T1 sequence (Q9NSD7 1-469): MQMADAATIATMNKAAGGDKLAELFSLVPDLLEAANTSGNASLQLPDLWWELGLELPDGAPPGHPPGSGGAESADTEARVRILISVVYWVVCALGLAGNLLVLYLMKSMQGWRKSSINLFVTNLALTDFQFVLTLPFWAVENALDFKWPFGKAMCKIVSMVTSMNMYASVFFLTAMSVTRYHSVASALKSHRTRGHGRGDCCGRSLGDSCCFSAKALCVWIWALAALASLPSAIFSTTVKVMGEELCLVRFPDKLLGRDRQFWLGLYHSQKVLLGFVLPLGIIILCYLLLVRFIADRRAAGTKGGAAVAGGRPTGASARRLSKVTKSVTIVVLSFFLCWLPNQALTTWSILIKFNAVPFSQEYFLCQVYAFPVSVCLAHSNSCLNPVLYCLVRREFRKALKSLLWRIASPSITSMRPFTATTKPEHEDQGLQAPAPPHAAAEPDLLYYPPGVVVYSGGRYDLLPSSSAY
Protocol: (§1) Figure 4 Receptor activation activities of the mature INSL5 and R3/I5 mutants towards RXFP3 and RXFP4. HEK293T cells transiently cotransfected by human RXFP3 or human RXFP4 and a CRE-controlled NanoLuc reporter were used for the activation assays. The measured data were expressed as mean ± SE (n = 3) and fitted to sigmoidal or linear curves using the software SigmaPlot 10.0.
(§2) The receptor activation assays of the mature INSL5 and R3/I5 mutants were carried out using a cAMP-response element (CRE)-controlled NanoLuc reporter according to our previous procedure. Briefly, HEK293T cells were transiently cotransfected with the expression construct of human RXFP3 or human RXFP4 and the CRE-controlled NanoLuc reporter vector pNL1.2/CRE. Next day, the transfected cells were trypsinised, seeded into a 96-well plate, and continuously cultured for 24–36 h to ~90% confluence. To start activation assay, the medium was removed and the activation solution (serum-free DMEM medium plus 1% bovine serum albumin) containing 1.0 μM of forskolin and varied concentrations of peptide was added (100 μl/well). After being continuously cultured at 37 °C for 4 h, the activation solution was removed and the cells were lysed by lysis solution (100 μl/well, from Promega). The cell lysate was then transferred to a white opaque 96-well plate (50 μl/well), mixed with the freshly diluted substrate (50 μl/well), and bioluminescence was immediately measured on a SpectraMax M5 plate reader (Molecular Devices) using the luminescence mode. The measured bioluminescence data were expressed as mean ± SE (n = 3) and fitted to sigmoidal or linear curves using the SigmaPlot10.0 software.

human RXFP4 [2] = molecular target: T2, human RXFP4 (Homo sapiens, UniProt Q8TDU9); assay: Receptor binding assay, competition with NanoLuc-conjugated R3/I5 tracer; settings: for pIC50 RXFP4: HEK293T cells transiently overexpressing human RXFP4, 0.5 nM NanoLuc-conjugated R3/I5 tracer, 21 °C, 2 h, mean ± SE, n = 3, SEM
T2 construct: expressed in transfected cells; host or cells: HEK293T
T2 sequence (Q8TDU9 whole entry): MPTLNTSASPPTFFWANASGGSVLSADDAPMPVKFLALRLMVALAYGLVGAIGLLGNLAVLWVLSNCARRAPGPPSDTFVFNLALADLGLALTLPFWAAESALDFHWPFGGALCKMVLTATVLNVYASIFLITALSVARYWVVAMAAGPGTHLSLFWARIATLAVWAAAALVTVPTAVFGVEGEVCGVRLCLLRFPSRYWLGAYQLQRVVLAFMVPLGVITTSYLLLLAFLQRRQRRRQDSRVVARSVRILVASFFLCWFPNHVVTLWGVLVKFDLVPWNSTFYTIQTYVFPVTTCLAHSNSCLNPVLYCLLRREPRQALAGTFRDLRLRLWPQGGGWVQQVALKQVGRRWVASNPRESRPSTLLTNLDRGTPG
Protocol: (§3) Figure 3 Receptor binding activities of the mature INSL5 and R3/I5 mutants towards RXFP3 and RXFP4. A NanoLuc-conjugated R3/I5 peptide was used as tracer and HEK293T cells transiently overexpressing human RXFP3 or human RXFP4 were used as receptor source. The tracer concentration used in these assays was 0.5 nM. The nonspecific binding was obtained by competition with 1.0 μM of relaxin-3. The measured data were expressed as mean ± SE (n = 3) and fitted to sigmoidal curves using the software SigmaPlot 10.0.
(§4) The receptor binding assays of the mature INSL5 and R3/I5 mutants were carried out using a NanoLuc-conjugated R3/I5 peptide as tracer and the human embryonic kidney (HEK) 293T cells transiently overexpressing human RXFP3 or human RXFP4 as receptor source. Nonspecific binding was obtained by competition with 1.0 μM of human relaxin-3. Briefly, HEK293T cells were transiently transfected with the expression construct of human RXFP3 or human RXFP4. Next day, the transfected cells were trypsinised, seeded into a 96-well plate, and continuously cultured for 24–36 h to confluence. To start binding assay, the medium was removed and the binding solution (serum-free DMEM medium plus 1% bovine serum albumin) containing 0.5 nM of the NanoLuc-conjugated R3/I5 tracer and varied concentrations of competitor was added (100 μl/well). After incubation at 21 °C for 2 h, the binding solution was removed and the cells were washed twice by ice-cold phosphate-buffered saline (200 μl/well for each wash). Thereafter, the cells were lysed by lysis solution (100 μl/well, from Promega, Madison, WI, USA) and the cell lysate was transferred to a white opaque 96-well plate (50 μl/well). After mixing with the freshly diluted substrate (50 μl/well), bioluminescence was immediately measured on a SpectraMax M5 plate reader (Molecular Devices, Sunnyvale, CA, USA) using the luminescence mode. The measured bioluminescence data were expressed as mean ± SE (n = 3) and fitted to sigmoidal curves using the SigmaPlot10.0 software.

human RXFP3 [3] = molecular target: T1, human RXFP3; assay: as above; settings: HEK293T cells transiently overexpressing human RXFP3; 0.5 nM NanoLuc-conjugated R3/I5 tracer; 21 °C, 2 h; mean ± SE, n = 3; SEM
Protocol: as §3, §4

human RXFP4 [4] = molecular target: T2, human RXFP4; assay: Receptor activation assay, CRE-controlled NanoLuc reporter; type: cell-based; settings: HEK293T cells cotransfected with human RXFP4 and CRE-controlled NanoLuc reporter; 1.0 μM forskolin; 37 °C, 4 h; mean ± SE, n = 3; SEM
Protocol: as §1, §2

Compound	fold lower activation potency towards RXFP3 than relaxin-3 (human RXFP3 [1])	fold lower binding potency towards RXFP4 compared with wild-type INSL5 (human RXFP4 [2]; lower than wild-type INSL5)	pIC50 RXFP3 (human RXFP3 [3])	pIC50 RXFP4 (human RXFP4 [2])	pEC50 RXFP4 (human RXFP4 [4])
CC[C@H](C)[C@@H]1NC(=O)[C@H](Cc2ccccc2)NC(=O)[C@H]([C@@H](C)CC)NC(=O)[C@H](C(C)C)NC(=O)[C@H]([C@@H](C)O)NC(=O)[C@H](CCCNC(=N)N)NC(=O)[C@H]([C@@H](C)CC)NC(=O)[C@H](Cc2ccc(O)cc2)NC(=O)[C@H](CCC(=O)O)NC(=O)[C@H](CCCNC(=N)N)NC(=O)CNC(=O)[C@@H](NC(=O)[C@H](CC(C)C)NC(=O)[C@H](CCCNC(=N)N)NC(=O)[C@@H](NC(=O)[C@H](CO)NC(=O)[C@H](CCC(=O)O)NC(=O)[C@@H](N)CCCCN)C(C)C)CSSC[C@@H]2NC(=O)[C@@H](NC(=O)[C@H](CC(C)C)NC(=O)[C@@H](NC(=O)[C@H](CCC(N)=O)NC(=O)[C@H](CC(C)C)NC(=O)[C@H](CC(=O)O)NC(=O)[C@@H](N)CCC(N)=O)[C@@H](C)O)CSSC[C@H](NC(=O)CNC(=O)[C@H](CC(=O)O)NC(=O)[C@H]([C@@H](C)O)NC2=O)C(=O)N[C@@H](CO)C(=O)N[C@@H](CCSC)C(=O)N[C@@H]([C@@H](C)O)C(=O)N[C@@H](CC(=O)O)C(=O)N[C@@H](CC(C)C)C(=O)N[C@@H](CO)C(=O)N[C@@H](C)C(=O)N[C@@H](CC(C)C)C(=O)N[C@H](C(=O)O)CSSC[C@@H](C(=O)NCC(=O)NCC(=O)N[C@@H](CO)C(=O)N[C@@H](CCCNC(=N)N)C(=O)N[C@@H](Cc2c[nH]c3ccccc23)C(=O)O)NC1=O [[L(B9)R,Y(B17)F,A(B20)G,S(B21)G]INSL5]	~ 100 fold	–	–	–	–
CC[C@H](C)[C@@H]1NC(=O)[C@H](Cc2ccc(O)cc2)NC(=O)[C@H]([C@@H](C)CC)NC(=O)[C@H](C(C)C)NC(=O)[C@H]([C@@H](C)O)NC(=O)[C@H](CCCNC(=N)N)NC(=O)[C@H]([C@@H](C)CC)NC(=O)[C@H](Cc2ccc(O)cc2)NC(=O)[C@H](CCC(=O)O)NC(=O)[C@H](CCCNC(=N)N)NC(=O)CNC(=O)[C@@H](NC(=O)[C@H](CC(C)C)NC(=O)[C@H](CCCNC(=N)N)NC(=O)[C@@H](NC(=O)[C@H](CO)NC(=O)[C@H](CCC(=O)O)NC(=O)[C@@H](N)CCCCN)C(C)C)CSSC[C@@H]2NC(=O)[C@@H](NC(=O)[C@H](CC(C)C)NC(=O)[C@@H](NC(=O)[C@H](CCC(N)=O)NC(=O)[C@H](CC(C)C)NC(=O)[C@H](CC(=O)O)NC(=O)[C@@H](N)CCC(N)=O)[C@@H](C)O)CSSC[C@H](NC(=O)CNC(=O)[C@H](CC(=O)O)NC(=O)[C@H]([C@@H](C)O)NC2=O)C(=O)N[C@@H](CO)C(=O)N[C@@H](CCSC)C(=O)N[C@@H]([C@@H](C)O)C(=O)N[C@@H](CC(=O)O)C(=O)N[C@@H](CC(C)C)C(=O)N[C@@H](CO)C(=O)N[C@@H](C)C(=O)N[C@@H](CC(C)C)C(=O)N[C@H](C(=O)O)CSSC[C@@H](C(=O)NCC(=O)NCC(=O)N[C@@H](CO)C(=O)N[C@@H](CCCNC(=N)N)C(=O)N[C@@H](Cc2c[nH]c3ccccc23)C(=O)O)NC1=O [[L(B9)R,A(B20)G,S(B21)G]INSL5]	–	~ 6 fold	–	–	–
[F(B20)Y,G(B23)A,G(B24)S]R3/I5: recombinant mature two-chain R3/I5 mutant (chain 1 RAAPYGVRLCGREFIRAVIYTCASSRW; chain 2 QDLQTLCCTDGCSMTDLSALC; disulfide (positions not given here); not fully specified; also: A-chain N-terminal pyroglutamate likely)	–	–	8.45 ± 0.04	7.91 ± 0.02	9.02 ± 0.05
[G(B23)A,G(B24)S]R3/I5: recombinant mature two-chain R3/I5 mutant (chain 1 RAAPYGVRLCGREFIRAVIFTCASSRW; chain 2 QDLQTLCCTDGCSMTDLSALC; not fully specified; two-chain, three disulfides; A-chain N-terminal pyroglutamate likely; possible unprinted extra residues as in m2)	–	–	–	–	8.44 ± 0.04
[R(B12)L,F(B20)Y,G(B23)A,G(B24)S]R3/I5: recombinant mature two-chain R3/I5 mutant (chain 1 RAAPYGVRLCGLEFIRAVIYTCASSRW; chain 2 QDLQTLCCTDGCSMTDLSALC; not fully specified; two-chain, three disulfides; A-chain N-terminal pyroglutamate likely; possible unprinted extra residues as in m2)	–	–	–	–	8.71 ± 0.06
[G(B23)A,G(B24)S]R3/I5: recombinant mature two-chain R3/I5 mutant (chain 1 RAAPYGVRLCGREFIRAVIFTCASSRW; chain 2 QDLQTLCCTDGCSMTDLSALC; disulfide (positions not given here); not fully specified; also: A-chain N-terminal pyroglutamate likely)	–	–	8.61 ± 0.03	8.06 ± 0.04	–
[R(B12)L,G(B23)A,G(B24)S]R3/I5: recombinant mature two-chain R3/I5 mutant (chain 1 RAAPYGVRLCGLEFIRAVIFTCASSRW; chain 2 QDLQTLCCTDGCSMTDLSALC; disulfide (positions not given here); not fully specified; also: A-chain N-terminal pyroglutamate likely)	–	–	8.38 ± 0.03	7.83 ± 0.04	8.16 ± 0.04
[Y(B5)E,R(B12)L,F(B20)Y,G(B23)A,G(B24)S]R3/I5: recombinant mature two-chain R3/I5 mutant (chain 1 RAAPEGVRLCGLEFIRAVIYTCASSRW; chain 2 QDLQTLCCTDGCSMTDLSALC; disulfide (positions not given here); not fully specified; also: A-chain N-terminal pyroglutamate likely)	–	–	8.11 ± 0.02	7.61 ± 0.05	8.24 ± 0.05
[R(B12)L,F(B20)Y,G(B23)A,G(B24)S]R3/I5: recombinant mature two-chain R3/I5 mutant (chain 1 RAAPYGVRLCGLEFIRAVIYTCASSRW; chain 2 QDLQTLCCTDGCSMTDLSALC; disulfide (positions not given here); not fully specified; also: A-chain N-terminal pyroglutamate likely)	–	–	8.40 ± 0.04	7.75 ± 0.05	–
